This note sets out measurements from the emibetuzumab library of Makowski et al. (2022).

Sequences and labels used below:
B1: VH:VL chains; a variant is named by its letters at X, in order (parent)
chain 1: QVQLVQSGAEVKKPGASVKVSCKASGYTFTDYXMHWVRQAPGQGLEWMGXVNPNXXXTTYNQKFEGRVTMTTDTSTSTAYMELRSLRSDDTAVYYCARXNXLDXWGQGTTVTVSS
chain 2: DIQMTQSPSSLSASVGDRVTITCSVSSSVSSIYLHWYQQKPGKAPKLLIYSTSNLASGVPSRFSGSGSGTDFTLTISSLQPEDFATYYCQVYSGYPLTFGGGTKVEIK

In this data set the parent is B1. Put plainly: yeast display scFab, FACS + sequencing. The procedure, abridged:
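The non-specific binding call was based on sorted and sequenced yeast displaying a heavy-chain CDR mutant scFab library. Labelling used anti-Myc with biotinylated ovalbumin (260 μg/mL in PBSB, 3 h, room temperature) or soluble membrane proteins (130 μg/mL, 20 min on ice), and FACS collected the top 25% and bottom 10% of binders in two replicates. Positive meant present in ≥3 of 4 pooled positive samples and in no negatives, and negative meant the converse.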
Take FKKGSSLD: the non-specific binding call is on record as “binds”.

For YKRGSFGA, the non-specific binding call is recorded as “binds”.

For SKKTGDLY, the non-specific binding call was “no binding”.

Regarding VKREAVGV, the non-specific binding call is “binds”.

Regarding FKRAGSLA, the non-specific binding call was “binds”.

Regarding YKRGDDLV, the non-specific binding call is recorded as “no binding”.

Regarding VKKTGDLY, the non-specific binding call is recorded as “no binding”.

Turning to YKRGSASV, the non-specific binding call is given as “binds”.

For YKRGSASD, the non-specific binding call was “binds”.

Take VKRGSSVD: the non-specific binding call was “binds”.

Regarding VKRGSSGA, the non-specific binding call was “binds”.

For the variant VKRGSSGD, the non-specific binding call is on record as “binds”.

FKRGSSLD: the non-specific binding call is “binds”.

In the case of FKRGSSLF, the non-specific binding call is given as “binds”.

On to YKKGSSLF, for which the non-specific binding call is listed as “binds”.

YKRGASVA: the non-specific binding call is listed as “binds”.

Consider YKRRDFGV, for which the non-specific binding call was “binds”.

As to AKRGSAAV, the non-specific binding call was “binds”.

For FKRKNSAA, the non-specific binding call was “binds”.

In the case of VKKTGSGA, the non-specific binding call is “binds”.

Consider YKRGGSGD, for which the non-specific binding call is recorded as “binds”.

SKKRGAWY: the non-specific binding call is listed as “binds”.

Take SKKRGAWA: the non-specific binding call is “binds”.

As to FKRRDSVY, the non-specific binding call was “binds”.

Regarding YKRESSSV, the non-specific binding call is given as “binds”.

For FKRGDAGD, the non-specific binding call is on record as “binds”.

Turning to VKRGSSAA, the non-specific binding call is “binds”.

Regarding SKKRGASA, the non-specific binding call was “binds”.

FKRKAAAA: the non-specific binding call is reported as “binds”.

For YKRGDSSS, the non-specific binding call is given as “no binding”.

Take FKKGSYVF: the non-specific binding call is “binds”.

For YKRKSASD, the non-specific binding call is listed as “binds”.

As to VKKRGAWS, the non-specific binding call is “binds”.

Consider FKKKDASV, for which the non-specific binding call is on record as “binds”.

In the case of FKKGDAVS, the non-specific binding call is “binds”.

Take SKKRGAAA: the non-specific binding call was “binds”.

On to SKRETAWS, for which the non-specific binding call is “binds”.

Turning to FKRGSSSY, the non-specific binding call was “binds”.

For YKRGSFVD, the non-specific binding call is listed as “binds”.

As to YKRESAGY, the non-specific binding call is reported as “binds”.

Turning to YKRGSSWD, the non-specific binding call is reported as “binds”.

On to DKRKGVSD chain 1 S88F, for which the non-specific binding call is “binds”.

For the variant YKRGGSWD, the non-specific binding call was “binds”.

Take YKRGDASS: the non-specific binding call is “no binding”.

Regarding YKRGSSSY, the non-specific binding call was “binds”.

In the case of YKRGSSSD, the non-specific binding call is listed as “binds”.

VKKGSSLF: the non-specific binding call was “binds”.

Consider AKKRGAWS, for which the non-specific binding call is “binds”.

Take YKRRGSAA: the non-specific binding call is “binds”.

With SKRKSSGA, the non-specific binding call is recorded as “binds”.

In the case of YKRGGAVV, the non-specific binding call is reported as “binds”.

As for YKRGSDGA, the non-specific binding call is recorded as “binds”.

Turning to SKKRGSWD, the non-specific binding call is given as “binds”.

As to VKREASVV, the non-specific binding call is “binds”.

Turning to FKKGSAAV, the non-specific binding call is “binds”.

As for FKKRGAWS, the non-specific binding call is given as “binds”.

For YKRGDAWA, the non-specific binding call is on record as “no binding”.

Take YKRGDAWD: the non-specific binding call was “no binding”.

Take YKRGSSVS: the non-specific binding call was “binds”.

With YKRGSSVV, the non-specific binding call was “binds”.

Consider YKRGSSVD, for which the non-specific binding call is recorded as “binds”.

YKRGDAVF: the non-specific binding call is listed as “no binding”.

For the variant YKKTGYWV, the non-specific binding call is listed as “binds”.

With DKREADGA, the non-specific binding call is reported as “no binding”.

As to YKRGSAAA, the non-specific binding call was “binds”.

For FKKGSSAA, the non-specific binding call is given as “binds”.

Turning to YKRGSSGD, the non-specific binding call is “binds”.

Turning to YKRGSSGF, the non-specific binding call is reported as “binds”.

On to YKRGSSGA, for which the non-specific binding call is “binds”.

Turning to FKRGSSAA, the non-specific binding call is given as “binds”.

For YKRRNSGD, the non-specific binding call is listed as “binds”.

Consider VKRRDSGD, for which the non-specific binding call is given as “binds”.

As to FKKGSFGA, the non-specific binding call is recorded as “binds”.

YKRGDSGF: the non-specific binding call was “no binding”.

As to VKRATVLA, the non-specific binding call was “binds”.

With FKKGSSWD, the non-specific binding call is “binds”.

For the variant VKRGDDVA, the non-specific binding call is reported as “no binding”.

Turning to VKRGDDVV, the non-specific binding call is listed as “no binding”.

Take YKKGGSGV: the non-specific binding call is “binds”.

Consider VKRATSWD, for which the non-specific binding call is given as “binds”.

FKKGSSGV: the non-specific binding call was “binds”.

FKKGSSGD: the non-specific binding call is on record as “binds”.

Regarding SKKGDFWV, the non-specific binding call is recorded as “binds”.

Consider FKKGSAVV, for which the non-specific binding call is “binds”.

Take FKKGSAVA: the non-specific binding call is listed as “binds”.

For the variant YKRRDAWV, the non-specific binding call is given as “binds”.

As for YKRGAAWS, the non-specific binding call is “binds”.

For the variant YKRAAVWD, the non-specific binding call is given as “binds”.

Consider DKREADVA, for which the non-specific binding call is given as “no binding”.

On to DKKKDVVF, for which the non-specific binding call is recorded as “binds”.

For the variant YKRGAAGD, the non-specific binding call was “binds”.

As for YKRRSASA, the non-specific binding call is given as “binds”.

For the variant YKRAAYGD, the non-specific binding call is given as “binds”.

With VKRGSSLF, the non-specific binding call is reported as “binds”.

As to YKRRDSVD, the non-specific binding call was “binds”.

Consider YKRGGAGS, for which the non-specific binding call is listed as “binds”.

Take SKKRGSGA: the non-specific binding call was “binds”.

For the variant SKRKSSSD, the non-specific binding call is on record as “binds”.

For YKKTGDLY, the non-specific binding call is on record as “no binding”.

Regarding YKRGSAWD, the non-specific binding call is “binds”.

For the variant YKRGSAWV, the non-specific binding call was “binds”.

As for YKRRDASD, the non-specific binding call is “binds”.

As for VKRGSFVD, the non-specific binding call is given as “binds”.

As to YKRGASLA, the non-specific binding call is “binds”.

Take YKKGGSLD: the non-specific binding call is “binds”.

Turning to YKKGGSLA, the non-specific binding call is given as “binds”.

As to VKRGSAAV, the non-specific binding call was “binds”.

On to VKRGSAAA, for which the non-specific binding call is given as “binds”.

YKRGGAAA: the non-specific binding call is given as “binds”.

On to YKRGGSSY, for which the non-specific binding call is on record as “no binding”.

Regarding YKRRDAVY, the non-specific binding call was “binds”.

In the case of YKRGSAVD, the non-specific binding call is reported as “binds”.

Consider SKRRGSLS, for which the non-specific binding call is given as “binds”.

Consider VKRGSSSD, for which the non-specific binding call was “binds”.

DKRKGVAF: the non-specific binding call is “binds”.

Turning to AKRGAFAD, the non-specific binding call is reported as “binds”.

For YKKRGAGV, the non-specific binding call is “binds”.

In the case of FKKGSVGD, the non-specific binding call is “binds”.

Turning to YKKRGAWS, the non-specific binding call is reported as “binds”.

As to YKRGSAGD, the non-specific binding call is on record as “binds”.

As for YKRGSAGF, the non-specific binding call is given as “binds”.

For YKREGSAV, the non-specific binding call is recorded as “no binding”.

Consider YKRGDDSS, for which the non-specific binding call is on record as “no binding”.

With YKRESAAV, the non-specific binding call is “binds”.

Take YKRGDAGY: the non-specific binding call is reported as “no binding”.

Consider SKKTGSVD, for which the non-specific binding call is on record as “no binding”.

YKRGDDGD: the non-specific binding call is listed as “no binding”.
